Values of other authors, collected in paper PMC6690345.

Biological target: integrin αIIbβ3 (Homo sapiens) (UniProt P08514)
Experiment: SPR

Row | Substance | Kd
1 | PDI (from UniProt P07237) | 1 µM
2 | ERp5 (from UniProt Q15084) | 21 µM
